This passage reports Kd and koff results from patent US20130071921A1 (Pfizer, published 2013).

Positions count from the first letter of the chain named.

The target in assay [1] is T1, Recombinant human Dkk-1 (R&D Systems cat no. 1096-DK/CF), 10xHis tag at the C terminal (human, UniProt O94907 32-266).
T1 construct: the actual N-terminus of the purified protein is marked in bold italic after residue 30, but the mark is an image lost in the text; also called rhuDkk-1; hDkk-1
T1 sequence: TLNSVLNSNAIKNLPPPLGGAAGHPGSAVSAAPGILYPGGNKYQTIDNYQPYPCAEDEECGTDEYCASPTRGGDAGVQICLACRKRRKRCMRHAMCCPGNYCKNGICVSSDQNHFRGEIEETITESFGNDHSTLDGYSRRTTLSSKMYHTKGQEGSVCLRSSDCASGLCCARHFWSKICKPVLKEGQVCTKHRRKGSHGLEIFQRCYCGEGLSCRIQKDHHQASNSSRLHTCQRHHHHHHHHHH
Nature of the assay: theoretical: koff / estimated kon 1e6 1/Ms (SPR screening 37C). On the procedure:
(§1) For screening assays to determine binding and dissociation rates of huMabJC18 variants to human Dkk1, either BIAcore or ProteOn XPR36 (BioRad, Inc.) systems were used. For the BIAcore assay, biotinylated-human Dkk1 was captured on SA (streptavidin) BIAcore chips according to the supplier's instructions. Biotinylated-human Dkk-1 protein was diluted into HBS-EP, and injected over the chip at a concentration of 5 μg/mL. Flow times across the individual chip channels were selected to achieve an antigen density of approximately 500-600 response units (RU). HBS-EP buffer was used as running buffer. Filtered recombinant E.coli cell lysates were injected at high temperature (37° C.) for 1 min at 30 ul/min, allowing a 1-5 min dissociation phase. Surfaces were regenerated with 8 mM NaOH+8% ethanol. A positive control Fab (clone 24) was injected twice at the start of the experiment, and again at the end of the assay to assess reproducibility.
For the ProteOn assay, biotinylated human Dkk-1 was injected for 1 min at serial fold dilutions empirically determined to yield different levels of immobilization (150-3000 RU) on five channels of a ProteOn NLC Neutravidin sensor chip. The sixth channel was left unmodified to serve as a reference surface. Recombinant Fabs in filtered E. coli lysates were injected at high temperature (37° C.) for 50 sec at 20 μl/min. Running buffer consisted of PBS+1 mg/ml BSA+0.005% Tween-20. The ProteOn is configured such that each injection flows over each of the five Dkk-1 channels as well as the reference channel, and six Fab samples can be injected simultaneously. Fab dissociation from the Dkk-1 surface was monitored for 20 min. The chip surface was regenerated with a 30-sec injection of 8% EtOH, 8 mM NaOH. Clone 24 Fab was used as control. Level of binding during association, and rate of dissociation for each clone was very consistent between different ligand channels. […]

Assay [2] has as its target T1, Recombinant human Dkk-1 (R&D Systems …). In words: SPR screening 37C (BIAcore/ProteOn), Fab lysate over biotinylated human Dkk-1. On the procedure: as §1
For the ProteOn assay, biotinylated human Dkk-1 was injected for 1 min at serial fold dilutions empirically determined to yield different levels of immobilization (150-3000 RU) on five channels of a ProteOn NLC Neutravidin sensor chip. The sixth channel was left unmodified to serve as a reference surface. Recombinant Fabs in filtered E. coli lysates were injected at high temperature (37° C.) for 50 sec at 20 μl/min. Running buffer consisted of PBS+1 mg/ml BSA+0.005% Tween-20. The ProteOn is configured such that each injection flows over each of the five Dkk-1 channels as well as the reference channel, and six Fab samples can be injected simultaneously. Fab dissociation from the Dkk-1 surface was monitored for 20 min. The chip surface was regenerated with a 30-sec injection of 8% EtOH, 8 mM NaOH. Clone 24 Fab was used as control. Level of binding during association, and rate of dissociation for each clone was very consistent between different ligand channels.
A general note: Surface plasmon resonance follows binding to a sensor surface in real time, without labels.

B1: L2.1B5 (Fab, V domains shown)
VH: EVQLVESGGGLVQPGGSLRLSCAASGFTFSSYAISWVRQAPGKGLEWVASVSGWGDTYYPDSVKGRFTISRDNAKNSLYLQMNSLRAEDTAVYYCATSLENYAFDYWGQGTTVTVSS
VL: EIVLTQSPATLSLSPGERATLSCRASESVDDFGISFMNWYQQKPGQAPRLLIYAASKQGSGIPARFSGSGSGTDFTLTISSLEPEDFAVYYCQQSKEVPPTFGGGTKVEIK
notes: tested as Fab (E. coli lysate, screening mode); human kappa CL and IgG2 CH1 not included here
For the molecule B1, the Kd (usually the constant that tells how readily two partners part at equilibrium) in assay [1] is 4.42 nM. In assay [2], the koff (commonly the rate constant with which the complex falls apart) came out at 0.00442 s⁻¹.

B2: L2.4B10 (Fab, V domains shown)
VH: B1 VH with G55Y
VL: B1 VL
notes: as for B1
Consider B2, for which the dissociation constant (Kd) in assay [1] is 3.45 nM. Further, the koff in assay [2] was 0.00345 s⁻¹.

B3: L2.1D12 (Fab, V domains shown)
VH: B1 VH with G55F, E100Q
VL: B1 VL
notes: as for B1
With B3, the Kd in assay [1] is 2.78 nM. Further, the koff in assay [2] is 0.00278 s⁻¹.

B4: L2.P4.C10 (Fab, V domains shown)
VH: B1 VH with E100K
VL: B1 VL
notes: as for B1
Regarding B4, in assay [1], the dissociation constant (Kd) is 4.31 nM. In addition, the koff in assay [2] was determined as 0.00431 s⁻¹.

B5: L3.1A3 (Fab, V domains shown)
VH: B1 VH with G55F, D56H, E100R
VL: B1 VL with M37I, A55G, S95L
notes: as for B1
B5: the dissociation constant (Kd) in assay [1] is 0.184 nM. In addition, the koff in assay [2] stood at 0.00018 s⁻¹.

B6: 2H10.33L (Fab, V domains shown)
VH: B1 VH with G55F, E100Q
VL: B1 VL with M37I, A55G, S95L
notes: as for B1
Regarding B6, the dissociation constant (Kd) in assay [1] was 0.148 nM. The koff in assay [2] was 0.000148 s⁻¹.

B7: L2.1B11 (Fab, V domains shown)
VH: B1 VH with G55F, E100R
VL: B1 VL
notes: as for B1
As for B7, the Kd in assay [1] is 2.07 nM. Moreover, in assay [2], the koff was 0.00207 s⁻¹.

B8: L2.P4.E7 (Fab, V domains shown)
VH: B1 VH with E100R
VL: B1 VL
notes: as for B1
For B8, in assay [1], the Kd is 5.19 nM. The off-rate (koff) in assay [2] was 0.00519 s⁻¹.

B9: L2.1E5 (Fab, V domains shown)
VH: B1 VH with W54G, D56R
VL: B1 VL
notes: tested as Fab (E. coli lysate, screening mode); human kappa CL and IgG2 CH1 not included here; printed changes identical to clone 24
In the case of B9, the Kd in assay [1] is 5.7 nM. In addition, the koff in assay [2] is 0.0057 s⁻¹.

B10: L2.1G4 (Fab, V domains shown)
VH: B1 VH with G55F, Y106K
VL: B1 VL
notes: as for B1
In the case of B10, the Kd in assay [1] was 3.12 nM. Further, the koff in assay [2] was determined as 0.00312 s⁻¹.

B11: L2.4D11 (Fab, V domains shown)
VH: B1 VH with G55M
VL: B1 VL
notes: as for B1
B11: in assay [1], the Kd is 3.26 nM. In addition, in assay [2], the koff came out at 0.00326 s⁻¹.

B12: L3.2H10 (Fab, V domains shown)
VH: B1 VH with G55L, D56G, E100K
VL: B1 VL with M37I, A55G, S95L
notes: as for B1
Turning to B12, the Kd in assay [1] is 0.569 nM. In addition, the koff in assay [2] came out at 0.000569 s⁻¹.

B13: L3.4E6 (Fab, V domains shown)
VH: B1 VH with W54G, G55L, D56G, E100R
VL: B1 VL with M37I, A55G, S95L
notes: as for B1
As for B13, in assay [1], the Kd is 0.99 nM. Further, in assay [2], the dissociation rate constant (koff) worked out at 0.00099 s⁻¹.

B14: 24m4 (Fab, V domains shown)
VH: B1 VH with W54G, D56R
VL: B1 VL with M37L
notes: as for B1
For the molecule B14, the Kd in assay [1] was 11.8 nM. The off-rate (koff) in assay [2] was 0.0118 s⁻¹.

B15: L2.P4.H3 (Fab, V domains shown)
VH: B1 VH with G55L
VL: B1 VL
notes: as for B1
As for B15, in assay [1], the Kd was 2.74 nM. For the same molecule, the koff in assay [2] stood at 0.00274 s⁻¹.

B16: L3.2H8 (Fab, V domains shown)
VH: B1 VH with G55L, D56G, E100Q
VL: B1 VL with M37I, A55G, S95L
notes: as for B1
For B16, the Kd in assay [1] is 0.555 nM. In assay [2], the koff stood at 0.000555 s⁻¹.

B17: L2.1F11 (Fab, V domains shown)
VH: B1 VH with G55L, E100Q
VL: B1 VL
notes: as for B1
Turning to B17, the Kd in assay [1] was 2.12 nM. Besides, the koff in assay [2] amounted to 0.00212 s⁻¹.

B18: L2.P4.B5 (Fab, V domains shown)
VH: B1 VH with L99Y
VL: B1 VL
notes: as for B1
On to B18, for which, in assay [1], the dissociation constant (Kd) was 5.32 nM. Further, the koff in assay [2] stood at 0.00532 s⁻¹.

B19: 24 (Fab, V domains shown)
VH: B1 VH with W54G, D56R
VL: B1 VL
notes: positive control Fab of the screening assays; human kappa CL and IgG2 CH1 not included here; printed changes identical to L2.1E5; also called clone 24; Clone 24 Fab
For the molecule B19, the Kd in assay [1] is 11.4 nM. The koff in assay [2] stood at 0.0114 s⁻¹.

B20: 24m5 (Fab, V domains shown)
VH: B1 VH with W54G, D56R
VL: B1 VL with A55G, S56T
notes: as for B1
As for B20, in assay [1], the dissociation constant Kd was 8.74 nM. Further, the koff in assay [2] stood at 0.00874 s⁻¹.

B21: L3.1D7 (Fab, V domains shown)
VH: B1 VH with G55F, D56R, E100R
VL: B1 VL with M37I, A55G, S95L
notes: as for B1
Take B21: in assay [1], the Kd was 0.164 nM. Besides, the off-rate (koff) in assay [2] worked out at 0.000164 s⁻¹.

B22: L3.1B12 (Fab, V domains shown)
VH: B1 VH with G55F, D56G
VL: B1 VL with M37I, A55G, S95L
notes: as for B1
As for B22, the Kd in assay [1] was 0.21 nM. Further, the koff in assay [2] turned out to be 0.00021 s⁻¹.

B23: L2.4G10 (Fab, V domains shown)
VH: B1 VH with G55L, E100R
VL: B1 VL
notes: as for B1
B23: in assay [1], the Kd was 2.76 nM. In addition, the koff in assay [2] came to 0.00276 s⁻¹.

B24: 2G9.33L (Fab, V domains shown)
VH: B1 VH with E100R
VL: B1 VL with M37I, A55G, S95L
notes: as for B1
As to B24, the Kd in assay [1] is 0.283 nM. The koff in assay [2] worked out at 0.000283 s⁻¹.

B25: 24m6 (Fab, V domains shown)
VH: B1 VH with W54G, D56R
VL: B1 VL with A55G
notes: as for B1
With B25, the Kd in assay [1] was 9.14 nM. Besides, in assay [2], the koff was 0.00914 s⁻¹.

B26: 1F10.33L (Fab, V domains shown)
VH: B1 VH with W54G, G55F, D56Q, E100D
VL: B1 VL with M37I, A55G, S95L
notes: human kappa CL and IgG2 CH1 not included here
B26: in assay [1], the Kd is 0.09 nM. The off-rate constant (koff) in assay [2] worked out at 8.99e-05 s⁻¹.

B27: L3.1H3 (Fab, V domains shown)
VH: B1 VH with G55L, D56H
VL: B1 VL with M37I, A55G, S95L
notes: as for B1
As for B27, the Kd in assay [1] is 1.15 nM. Besides, the off-rate (koff) in assay [2] is 0.00115 s⁻¹.

B28: L2.1G8 (Fab, V domains shown)
VH: B1 VH with G55F
VL: B1 VL
notes: as for B1
B28: the Kd in assay [1] was 2.55 nM. Moreover, the koff in assay [2] was found to be 0.00255 s⁻¹.
